# Values of other authors in paper PMC4489983.
# Columns and labels:
# [1] = target: spinophilin (Homo sapiens) (UniProt Q96SB3)
# [2] = target: PNUTS (Homo sapiens) (UniProt Q96QC0)
# [3] = target: NIPP1 (Homo sapiens) (UniProt Q12972)
# Sequence of NIPP1 (Homo sapiens) (Q12972 whole entry): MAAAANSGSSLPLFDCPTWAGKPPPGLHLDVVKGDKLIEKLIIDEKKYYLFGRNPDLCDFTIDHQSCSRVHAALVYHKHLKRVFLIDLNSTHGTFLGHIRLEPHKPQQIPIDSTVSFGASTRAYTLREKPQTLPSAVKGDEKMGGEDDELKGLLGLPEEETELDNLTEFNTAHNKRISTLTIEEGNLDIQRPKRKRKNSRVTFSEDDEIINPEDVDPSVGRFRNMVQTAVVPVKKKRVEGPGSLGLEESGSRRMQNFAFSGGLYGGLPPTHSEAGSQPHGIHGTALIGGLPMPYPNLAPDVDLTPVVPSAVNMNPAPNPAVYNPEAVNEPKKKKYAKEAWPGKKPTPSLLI
# Sequence of PP1α (P62136 2-330): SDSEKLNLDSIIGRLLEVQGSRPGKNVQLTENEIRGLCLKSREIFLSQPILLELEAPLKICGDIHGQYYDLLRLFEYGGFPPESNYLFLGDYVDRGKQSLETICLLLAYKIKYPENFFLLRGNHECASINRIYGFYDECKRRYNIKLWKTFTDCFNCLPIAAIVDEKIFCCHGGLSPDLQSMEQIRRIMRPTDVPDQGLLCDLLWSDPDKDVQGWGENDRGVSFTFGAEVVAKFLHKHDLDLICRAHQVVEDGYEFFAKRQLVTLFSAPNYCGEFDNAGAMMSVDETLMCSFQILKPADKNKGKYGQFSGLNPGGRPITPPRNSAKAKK
# Sequence of PNUTS (Homo sapiens) (Q96QC0 whole entry): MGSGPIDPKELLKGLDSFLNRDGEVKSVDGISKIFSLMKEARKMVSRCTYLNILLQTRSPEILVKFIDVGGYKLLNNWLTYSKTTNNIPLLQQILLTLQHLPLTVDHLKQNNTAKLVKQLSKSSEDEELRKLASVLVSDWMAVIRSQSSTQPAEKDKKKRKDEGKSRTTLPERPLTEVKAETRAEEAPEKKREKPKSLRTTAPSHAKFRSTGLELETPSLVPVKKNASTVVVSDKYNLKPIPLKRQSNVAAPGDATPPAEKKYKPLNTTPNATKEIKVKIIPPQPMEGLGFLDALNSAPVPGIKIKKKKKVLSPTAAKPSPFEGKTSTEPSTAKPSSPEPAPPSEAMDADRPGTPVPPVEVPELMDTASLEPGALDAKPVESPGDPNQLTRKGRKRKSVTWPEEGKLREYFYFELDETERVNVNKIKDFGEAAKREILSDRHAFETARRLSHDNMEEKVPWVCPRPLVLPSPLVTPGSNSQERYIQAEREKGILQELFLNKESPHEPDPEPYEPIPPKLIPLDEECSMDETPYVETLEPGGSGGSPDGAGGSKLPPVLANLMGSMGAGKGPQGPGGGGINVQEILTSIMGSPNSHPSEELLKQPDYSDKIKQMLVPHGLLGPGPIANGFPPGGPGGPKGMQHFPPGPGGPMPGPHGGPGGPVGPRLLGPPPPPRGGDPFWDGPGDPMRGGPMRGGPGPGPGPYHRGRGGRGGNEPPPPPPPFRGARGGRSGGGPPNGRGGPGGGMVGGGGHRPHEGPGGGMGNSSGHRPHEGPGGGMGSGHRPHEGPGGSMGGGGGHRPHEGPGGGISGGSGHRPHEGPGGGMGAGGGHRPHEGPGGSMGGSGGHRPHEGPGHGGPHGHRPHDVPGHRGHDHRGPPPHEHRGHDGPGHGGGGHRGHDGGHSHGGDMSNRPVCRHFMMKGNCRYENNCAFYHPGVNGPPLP
# Sequence of spinophilin (Homo sapiens) (Q96SB3 whole entry): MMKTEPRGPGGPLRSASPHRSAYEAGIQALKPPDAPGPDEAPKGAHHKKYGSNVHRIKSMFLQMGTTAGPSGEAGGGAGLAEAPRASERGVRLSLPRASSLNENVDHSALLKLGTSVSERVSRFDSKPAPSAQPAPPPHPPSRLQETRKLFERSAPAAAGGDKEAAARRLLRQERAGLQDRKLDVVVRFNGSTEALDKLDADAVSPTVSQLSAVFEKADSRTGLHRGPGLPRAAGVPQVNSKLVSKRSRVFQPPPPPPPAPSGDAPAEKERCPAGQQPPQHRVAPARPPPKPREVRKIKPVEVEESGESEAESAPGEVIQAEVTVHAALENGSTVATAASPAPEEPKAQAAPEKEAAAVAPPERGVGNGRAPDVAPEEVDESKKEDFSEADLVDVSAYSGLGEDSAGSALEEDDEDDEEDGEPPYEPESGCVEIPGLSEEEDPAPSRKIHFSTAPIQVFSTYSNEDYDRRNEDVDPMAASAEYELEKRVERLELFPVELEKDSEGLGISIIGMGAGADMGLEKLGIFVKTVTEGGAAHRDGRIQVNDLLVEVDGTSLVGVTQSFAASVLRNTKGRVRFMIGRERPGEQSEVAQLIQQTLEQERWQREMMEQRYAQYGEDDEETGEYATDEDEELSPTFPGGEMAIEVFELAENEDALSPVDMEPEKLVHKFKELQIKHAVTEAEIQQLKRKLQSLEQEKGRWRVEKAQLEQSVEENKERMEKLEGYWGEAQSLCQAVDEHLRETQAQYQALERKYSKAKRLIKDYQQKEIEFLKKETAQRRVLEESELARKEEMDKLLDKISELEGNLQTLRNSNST
substance,measurement,setting,value
PP1α (from UniProt P62136),Kd,[1],9.3 nM
same,Kd,[2],8.7 nM
same,Kd,[3],73 nM
